Measured values reported in paper PMC5569669, “Rhenium and Technetium-oxo Complexes with Thioamide Derivatives of Pyridylhydrazine Bifunctional Chelators Conjugated to the Tumour Targeting Peptides Octreotate and Cyclic-RGDfK” (Inorganic Chemistry, 2017).

Assay type: in vitro ADME, human
Protocol: Human blood samples were centrifuged with a Heraeus Labofuge 6000 centrifuge at 3000g for 10 min (Heraeus, Hanau, Germany). Radioactivity readings for serum stability studies were taken with a Capintec CRC-35R dose calibrator (Capintec, New Jersey, USA) and were measured in MBq. Centrifugation of radioactive compounds was undertaken using an Eppendorf 5415 D centrifuge (Eppendorf, Hamburg, Germany). Partition coefficient data were collected with a PerkinElmer, Wizard 1470 (PerkinElmer, Massachusetts, USA) automatic γ counter, which measured the radioactive decay of each sample in counts per minute (cpm).
For serum stability studies, blood from a healthy person (20 mL) was centrifuged (10 min, 3000 rpm) to separate blood plasma and red blood cells. The plasma was transferred to a separate vial and the red blood cells were discarded. An aliquot of plasma (0.6 mL) was added to labeled compound, [^99mTc(HL^3(Tyr^3-Oct))2]^+ (0.15 mL), the radioactivity was monitored and the mixture was then incubated at 37 °C. […] The radioactivity of the supernatant and pellet was recorded. The supernatant (20 μL) was analyzed by analytical RP-HPLC (Column 7, System C) for UV and radioactivity analysis and the pellet were washed with acetonitrile (3 × 0.1 mL), and radioactivity levels were again recorded (radioactivity levels of the pellet were negligible).

For `C[C@@H](O)[C@H](NC(=O)[C@@H]1CSSC[C@H](NC(=O)[C@@H](Cc2ccccc2)NC(=O)c2ccc(NNC(=S)Nc3ccccc3)nc2)C(=O)N[C@@H](Cc2ccc(O)cc2)C(=O)N[C@H](Cc2c[nH]c3ccccc23)C(=O)N[C@@H](CCCCN)C(=O)N[C@@H]([C@@H](C)O)C(=O)N1)C(=O)O` (99mTc complex, metal not drawn) [[^99mTcO(HL^3(Tyr^3-Oct))2]^+], the “degradation products in human plasma” value was less than 5% and the “radioactivity levels of the pellet (precipitated serum proteins)” value was “negligible”.
